Measurements taken from patent US20240285725A1 (APELLIS PHARMACEUTICALS, published 2024).

B1: (CA28-AEEAc)8-PEG40k (peptide)
peptide: ICVWQDWGAHRCTK
modifications: N-terminal acetyl; 1-methyl-tryptophan at position 4; disulfide Cys2-Cys12; AEEAc between Thr13 and Lys; C-terminal amide; Lys side chain coupled to an arm of an eight-arm 40 kD PEG (NOF HGEO-400GS)
B2: CA28-AEEAc-Lys-(PEG40k) (peptide)
peptide: ICVWQDWGAHRCTK
modifications: not fully specified; N-terminal acetyl; 1-methyl-tryptophan at position 4; disulfide Cys2-Cys12; AEEAc between Thr13 and Lys; C-terminal amide; linear monofunctional 40 kD PEG (NOF ME-400GS) on the Lys side chain
B3: CA28-AEEAc-Lys(mPEG40K-hexanoyl) (peptide)
peptide: ICVWQDWGAHRCTK
modifications: N-terminal acetyl; 1-methyl-tryptophan at position 4; disulfide Cys2-Cys12; AEEAc between Thr13 and Lys; C-terminal amide; linear 40 kD mPEG (NOF ME-400HS) on the Lys side chain
B4: CA28-AEEAc-Lys(mPEG40K-carbonyl) (peptide)
peptide: ICVWQDWGAHRCTK
modifications: not fully specified; N-terminal acetyl; 1-methyl-tryptophan at position 4; disulfide Cys2-Cys12; AEEAc between Thr13 and Lys; C-terminal amide; linear 40 kD mPEG (NOF ME-400TS) on the Lys side chain
B5: CA28-AEEAc-Lys(mPEG40K-succinyl) (peptide)
peptide: ICVWQDWGAHRCTK
modifications: N-terminal acetyl; 1-methyl-tryptophan at position 4; disulfide Cys2-Cys12; AEEAc between Thr13 and Lys; C-terminal amide; linear 40 kD mPEG (NOF ME-400CS) on the Lys side chain

Key:
Assay in all cases: cell-based or functional assay
complement component C3 [1] = target: T1, complement component C3 (human, UniProt P01024 23-1663)
complement component C3 [2] = target: T1, complement component C3; remark: listed apart in the source
complement component C3 [3] = target: T1, complement component C3; remark: listed apart in the source

| Binder | IC50 on a molar basis (corrected for 7.5 CA28 moieties per molecule), classical complement inhibition assay (complement component C3 [1]) [nM] | IC50, classical complement inhibition assay (C3b deposition ELISA, human plasma), as a function of CA28 moiety concentration (complement component C3 [2]) [nM] | IC50 (read off the curve), classical-pathway complement activation (C3b deposition ELISA, human plasma) (complement component C3 [3]) [nM] |
| --- | --- | --- | --- |
| B1 | ~260 | 1930 | – |
| B2 | – | – | ~700 |
| B3 | – | – | ~700 |
| B4 | – | – | ~700 |
| B5 | – | – | ~700 |
